Measurements: the nanobody polyreactivity screen of Harvey et al. (2022)

Test: yeast display, Sf9 membrane polyspecificity reagent, FACS + sequencing; frameworks hold sequencing errors
Summary of the method: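 Nanobodies came from a synthetic yeast display library in Saccharomyces cerevisiae BJ5465, induced with galactose for 36–48 hours and stained for 1 hour at 4 °C with 10% biotinylated, detergent-solubilized Sf9 membrane reagent. Cells were enriched on streptavidin microbeads and then FACS-sorted, with low and high (top ~1%) gates set on anti-HA fluorescence for expression and streptavidin fluorescence for reagent binding. Each polyreactivity label reflects the gate a clone came from. Genes were amplified by colony PCR, sequenced by MiSeq 2 × 250 and filtered by CDR length.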
With “QVQLVESCGGLVQAGGSLRLSCDASGITFNYNAMGWYRQAPGKERELVARITWSGTRTYYADSVKGRFTISRDNAKNTVYLQMNSLKPEDTAVYYCNAGPYARYYWGQGTQVTVSS” the “polyreactivity (PSR sort gate)” value was “high polyreactivity”.
In the case of “QVQLVESGGGLVQAGGSLRLSCAASGGTLDVYAMGWYRQAPGKEREFVAAISWSGGRTYYADSVKGRFTISRDNAKNTVYLQMNSLKPEDTAVYYCATRDRAGYYYWGQGTQVTVSS”, the “polyreactivity (PSR sort gate)” value is reported as “high polyreactivity”.
For “QVQLVESGGGLVQAGGSLRLSCAASGFIFYANAMGWYRQAPGKERELVAAITWSGSRTYYADSVKGRFTISRDNAKNTVYLQMNSLKPEDTAVYYCNKDWYVGSFGYPEDYWGQGTQVTVSS”, the “polyreactivity (PSR sort gate)” value was “low polyreactivity”.
For “QVQLVESGGGLVQAGGSLRLSCAASGRIFRRYTMGWYRQAPGKERELVAAISSGGTTYYADSVKGRFTISRDNAKNTVYLQMNSLKPEDTAVYYCAAPWRSSIPHYEYWGQGTQVTVSS”, the “polyreactivity (PSR sort gate)” value was “high polyreactivity”.
For “QVQLVESGGGLVQAGGSLRLSCAASGNTLWRNAMGWYRQAPGKERELVATISSVGTYYADSVKGRFTISRDNAKNSVYFQMNSLKPEDTAVYYCAARIWAFYSRRYFWGQGTQVTVSS”, the “polyreactivity (PSR sort gate)” value was “high polyreactivity”.
For “QVQLVESGGGLVQAGGSLRLSCAASGSTFPQNAMGWTRQAPGKERELVAVISRSGGNPYYADSVKGRFTISRDIAKNSVYLQMNSLKPEDTAVYYCATRVKTTYDYWGQGTQVTVSS”, the “polyreactivity (PSR sort gate)” value was “low polyreactivity”.
For “QVQLVESGGGLVQAGGSLRLSCAASGRTFPSYAMGWYRQAPGTERELVAAITVSGGNTYYAHSVKGRFTISRDNAKNTVYLQMNSLKPEDTAVYYCNTPSYVSWYVHYYYWGQGTQVTVSS”, the “polyreactivity (PSR sort gate)” value was “low polyreactivity”.
In the case of “QVQLVESGGGLVQAGGSLRLSCAASGIIFANNAMGWYRQAPGKERELVARISRSGGGTYYADSVKGRFTISRDNAKNTVYLQMNSLKPEDTAVYYCNAESSYYYGTAAYEYWGQGTQVTVSS”, the “polyreactivity (PSR sort gate)” value is reported as “low polyreactivity”.
In the case of “QVQLVESGGGLVQAGGSLRLSCAASGSIFGVNAMGWYRQAPGKERELVATIRQRGTSTYNADSVKGRFTISRDTAKNTVYLQMNSLKPEDTAVYYCAARGGVLKGYYYWGQGTQVTVSS”, the “polyreactivity (PSR sort gate)” value is reported as “high polyreactivity”.
With “QVQRVETGGGLFQAGGSLRLSCAASGRTFGPYAMGWYIQAPGKERELVAAIRYIDDSTFYADSVKGRFTISRDNAKNTVYVQMNSLKPEDTAVYYCAAQRRVVGRHGLSLIRYDYWGQGTQVTVSS” the “polyreactivity (PSR sort gate)” value was “low polyreactivity”.
For “QVQLVESGGGLVQAGGSLRLSCAASVRIFRINTMGWYRQAPGKERELVAAIRTSGSSTYADSVKGRFTISRDNAKNTVYLQMNSLKPEDTAVYYCNTKYPGRGYYWGQGTQVTVSS”, the “polyreactivity (PSR sort gate)” value was “high polyreactivity”.
For “QVQLVESGGGLVQAGGSLRLSCAASGSILVNMGWYRQPPGKERELVAAIRYGGGRTYYADSVKGRFTISRDNAKNTVYLQMNSLKPEDTAVYYCAASQGRSYYYWGQGTQVTVSS”, the “polyreactivity (PSR sort gate)” value was “low polyreactivity”.
With “QVQLVESGGGLVQAGGSLRLSCAASGFTFKYYAMGWYRQAPGKERELVADITRSGGSTYYADSVKGRFTISRDTAKITVYLQMNSLKPEDTAVYYCAVDPVRYPYSYDYWGQGTQVTVSS” the “polyreactivity (PSR sort gate)” value was “high polyreactivity”.
For “QVQLVESGGGLVQAGGSLRLSCAASGRTLGRNAMGWYRQAPGKVRELVASISSGGSTNYAYSVKGSFTISRDNAKNTVYLQMNSQKPEDTEVYYCNKRYRSLYSSGYDYWGQVTQVTVSS”, the “polyreactivity (PSR sort gate)” value was “high polyreactivity”.
In the case of “QVQLVESGGGLVQAGGSLRLSCAASGIIIDTNAMGWYRQAPGTERELVASISKRGGSTYYADSVKGRFTISRDNAKNTVYLQMNSLKPEDTAVYYCNALRRRQYHDDYWGQGTQVTVSS”, the “polyreactivity (PSR sort gate)” value is reported as “high polyreactivity”.
In the case of “QVQLVESGGGLVQAGGSLRLSCAASGSKFKRNAMVWYRQAPGKERELVASISSGGSTHYADSVNGRFTISRDNSKNTVYLEMNSLKPEDTAVYYCAATSIRWSVGSFRRDYWGQGTQVTVSS”, the “polyreactivity (PSR sort gate)” value is reported as “low polyreactivity”.
For “QVQLVESGGGLVQAGGSLRLSCAASGFIFVNYAMGWYRQAPGKERELVAAITRRGGRTYYADSVKGRFTISRDNAKNTVFLQINRLKPEDTAVYYCATENQSRTPEEDSWGQGTQVTVSS”, the “polyreactivity (PSR sort gate)” value was “high polyreactivity”.
With “QVQLVESGGGLVQAGGSLRLSCAASGSTFYSYAMGWYRQAPGKERELVAAISWRGGSTYYADSVKGRFTISRDNAKNTVYLQMNSLKPEDPEVYYCAAYRGDGYEYWGQGTQVTVSS” the “polyreactivity (PSR sort gate)” value was “high polyreactivity”.
In the case of “QVQLVESGGGLVQAGGSLRLSCAASGSTFWYYTMGWYRQAPGKERELVAAISKSGTNTYYADSVKGRFTISRDQAKNTVYLQMNSLKPEDTAVDYCNALTKTGTPPDYDYWGQGTQVTVSS”, the “polyreactivity (PSR sort gate)” value is reported as “high polyreactivity”.
For “QVQLVESGGGLVQAGGSLRLSCAASGNTFAYNTMGWYRQAPGKERELVAAIRTRGGSTYYADSVKGRFTISRDNAKNTVYLQMNSLKPEDTAVYYCAADYRYHGYWSYDYWGQGTQVTVSS”, the “polyreactivity (PSR sort gate)” value was “low polyreactivity”.
With “QVQLVESGGGLVQAGGSLRLSCAASGFTFSLNTMGWYRQAPGKEREFVAAITYRTGRTYYADSVKGRFTISRDNAKNTVYLQMNSLKPDDTAVYYCNAGEHTRWYYWTPTYTTVDYWGLGTQVTVSS” the “polyreactivity (PSR sort gate)” value was “low polyreactivity”.
For “QVQLVESGGGLVQAGGSLRLSCAASGFTFRTYAMGRYRQAPGTERELVAAINVSGGTYYADSVKGRFTISRDNAKNTVYLQMNSLKPEDSAVYYCTANRFRTGFDYWGQGTQVTVSS”, the “polyreactivity (PSR sort gate)” value was “low polyreactivity”.
For “QVQLVESGGGLVQAGGSLRLSCAASGSIFSPYAMGWYRQAPGKERELVAAITWSGGSTYYADSVKGRFTISRDNAKNTVYLQMNSLKPEDTAVYYCAATYYVNAWRYYYWGQGTQVTVSS”, the “polyreactivity (PSR sort gate)” value was “high polyreactivity”.
In the case of “QVQLVESGGGLVQAGGSLRLSCAASGYTIDGYAMGWYRQAPGKERELVAGISSAGTTNYADSVKGRFTISRDNAKNTVYLQMNSLKPEDTAVYYCNKDYSTYWLYTWQITVADDYWGQGTQVTVSS”, the “polyreactivity (PSR sort gate)” value is reported as “low polyreactivity”.
In the case of “QVQLVESGGGLFQAGGSLRLSCAASGSIFDDYAMGWYRQAPGKERELVAAISSSGTSTYYADSVKGRFTISRDNAKNTVYLQMNSLKPEDTAVFYCAARSAILKSGYLMDYWGQGTQVTVSS”, the “polyreactivity (PSR sort gate)” value is reported as “low polyreactivity”.
For “QVQLVESGGGLVQAGGSLRLSCAASGRTFVTYAMGWYRPAPGKERELVAAITGSGGRTYYADSVKGRFTISRDNAKLTVYLQMNRLKPEDTAVYYCAKDHPSGRQYDYWGQGTQVTVSS”, the “polyreactivity (PSR sort gate)” value was “high polyreactivity”.
With “QVQLVESGGGIVQAGGSLRLTCDASGFTFVINDMGRYRQARGKERELVADITSGGDTYYADSVKGRFTISRDNAKNSVYFHRNSLKPEDTAVYFCAADIYPDWIYLLYGYWGQGTQLTVSS” the “polyreactivity (PSR sort gate)” value was “low polyreactivity”.
For “QVQLVESGGGLVQAGGSLRLSCAASGNTFDRNAMGWYRQAPGKERELVAGISWRGGSTYYADSVKGRFTISRDNAKNTVYLQMNSLKPEDTAVYYCAAQRRYSTITGYGSWGQGTQVTVSS”, the “polyreactivity (PSR sort gate)” value was “high polyreactivity”.
With “QVQLVESGGGLVQAGGSLRLSCAASGSTFGRYALGWYRQAPGKEREFVAAISWSGGSTYYADSVKGRFTISRDNAKNTVYLQMNSLKPEDSAVYYCAASYIYQSSWYHRMYYWGQGTQVTVSS” the “polyreactivity (PSR sort gate)” value was “high polyreactivity”.
For “QVQLVESGGGLVQAGGSLRLSCAASGRIFFIYAMGWYRPAPGKERELVAAISSSGGTTYYADSVKGRFTISRDNAKNTVYLQMNSLKPEDTAVYYCAARSAATHWTFLFYYDFDYWGQGSQVTVSS”, the “polyreactivity (PSR sort gate)” value was “low polyreactivity”.
In the case of “QVQLVESGGGLVQAGGSLRLSCAASGFIFIYNVMGWYRPAPGKERELVAAINRGGSTKYADSVKGRFTISRDNAKNTVYLQMNSLKPEDTAVYYCAARYDGSRYHYDGYDYWGQGTQVTVSS”, the “polyreactivity (PSR sort gate)” value is reported as “low polyreactivity”.
In the case of “QVQLVESGGGLVQAGGSLRLSCAASGLIFGRNAMGWYRQAPGKERELVAAINNSGGTTYYADSVKGRFTISRDNAKNTVYLQMNSLKPEDTAVYYCNAYFRNWRYSPGGYWGQGTQVTVSS”, the “polyreactivity (PSR sort gate)” value is reported as “high polyreactivity”.
For “QVQLVESGGGIVQAGGSLRLSCAASGFTFTYNTKGWYRQEPGKERELVAAISRSGGSTYYADSVKGRFTISRDNAKNTVYLQLNSLKPEDSAVYYCAKQRRDDNGGYWGLGTQVTVSS”, the “polyreactivity (PSR sort gate)” value was “high polyreactivity”.
For “QVQLVESGGGLVQAGGSLRLSCAASGSIFFLNAMGWYRQAPGKERELVAAITNVGSTYYADSVKGRFTISRDNAKNTVYLQMNSLKPEDTAVYYCNADPGEVLVGYDYWGQGTEVTVSS”, the “polyreactivity (PSR sort gate)” value was “low polyreactivity”.
In the case of “QVQLVESGGGLVHAGGSLRLSCAASGSTFNTNTMGWYRQAPGKERELVAAITKSGGSTYYADSVKGRFTISRDNAKNTVYLQMNSLKPEDTAVYYCNAYPDDSYKYLYWSDGDYWGQGTQVTVSS”, the “polyreactivity (PSR sort gate)” value is reported as “low polyreactivity”.
For “QVQLVESGGGLVQAGGSLRLSCAASGYTFWQYAMGWYRQAPGKERELVATITSRGGSTYYADSVKGRFTISRDNAKNTVYLQMNSLKPEDSAVYYCNARRRYSTRRSDYWGQGTQVTVSS”, the “polyreactivity (PSR sort gate)” value was “high polyreactivity”.
For “QVQLHESGGGLVQAGGSLRLSCAASGSISAVGAMGWNRQPPGKEREFAASVNWGTNTNYADSVKGRFTFSRDNAKNTLYLQMNSLKPEDTGVYYCAVLPDWETRHDYWGHGTQVTVSS”, the “polyreactivity (PSR sort gate)” value was “low polyreactivity”.
In the case of “QVQLVESGGGLVQAGGSLRLSCAASGSIFNYYAMGWYRQAPGKVRELVATISSGGNTKFADSVKGRFTISRDNAKNTVYLQMKSLKPEDTAVYFCGARWQHSGYRDRYCYDYWGQGTQVTVSS”, the “polyreactivity (PSR sort gate)” value is reported as “low polyreactivity”.
For “QVQLVESGGGLVQAGGSLRLSCAASGFIFAIYAMGWYRQAPGKERELVAAISSSGGSTYYADSVKGRFTISRDNAKNTVYLQMNSLKPEDTAVYYCNADWSLYWLDYWGQGTQVTVSS”, the “polyreactivity (PSR sort gate)” value was “high polyreactivity”.
With “QVQLVASGGGLVQAGGSLRLSCAASGSNFAYNGMGWYRLAPGKERELVAAMSWNGGTTYYADSVKGRFTISRDKAKKNVYLQRNSLKPEDTAVYYCATDSYYFREYDYWGQGTQVTVSS” the “polyreactivity (PSR sort gate)” value was “low polyreactivity”.
In the case of “QVQLVESGGGLVQAGGSLRLSCAASGSIFDNYAMGWYRPAPGKERELVAAITSGGSTYYADSVKGRFTISRDNAKNTVYLQMNSLKPEDTAVYYCAKDYKSIDDYWGQGTQVTVSS”, the “polyreactivity (PSR sort gate)” value is reported as “low polyreactivity”.
For “QVQLVESGGGLVQAGGSLRLSCAASGSTLYRNAMGWYRQAPGKERELVAAINYRGTRTYYADSVKGRFTISRDNAKNTVYLQMNSLKPEDTAVYYCAKDYSQFVTYPYDYWGQGTQVTVSS”, the “polyreactivity (PSR sort gate)” value was “low polyreactivity”.
For “QVQLVESGGGLVQAGGSLRLSCAASGSIFDFYVMGWYRQAPGKERELVAGISEGGDSTYYADSVKGRFTISRDNAKNTVYLQMNSLKPEDTAVYYCAKASAKGSYYWGQGTQVTVSS”, the “polyreactivity (PSR sort gate)” value was “low polyreactivity”.
